# Experimental data taken from paper PMC8269962 (Nature, 2021).
# B1: CR8071 (antibody, V domains shown)
# VH: QVQLVQSGAEVKKPGASVRVSCRASGYIFTESGITWVRQAPGQGLEWMGWISGYSGDTKYAQKLQGRVTMTKDTSTTTAYMELRSLRYDDTAVYYCARDVQYSGSYLGAYYFDYWSPGTLVTVSS
# VL: QSVLTQPPSASGTPGQRVTISCSGSSSNIGTNYVYWYQQFPGTAPKLLIYRSYQRPSGVPDRFSGSKSGSSASLAISGLQSEDEADYYCATWDDSLDGWVFGGGTKLTVL
# Target: T1, B/Vic-I53_dn5 nanoparticle (Influenza B virus B/Brisbane/60/2008 …, strain)
# T1 chain: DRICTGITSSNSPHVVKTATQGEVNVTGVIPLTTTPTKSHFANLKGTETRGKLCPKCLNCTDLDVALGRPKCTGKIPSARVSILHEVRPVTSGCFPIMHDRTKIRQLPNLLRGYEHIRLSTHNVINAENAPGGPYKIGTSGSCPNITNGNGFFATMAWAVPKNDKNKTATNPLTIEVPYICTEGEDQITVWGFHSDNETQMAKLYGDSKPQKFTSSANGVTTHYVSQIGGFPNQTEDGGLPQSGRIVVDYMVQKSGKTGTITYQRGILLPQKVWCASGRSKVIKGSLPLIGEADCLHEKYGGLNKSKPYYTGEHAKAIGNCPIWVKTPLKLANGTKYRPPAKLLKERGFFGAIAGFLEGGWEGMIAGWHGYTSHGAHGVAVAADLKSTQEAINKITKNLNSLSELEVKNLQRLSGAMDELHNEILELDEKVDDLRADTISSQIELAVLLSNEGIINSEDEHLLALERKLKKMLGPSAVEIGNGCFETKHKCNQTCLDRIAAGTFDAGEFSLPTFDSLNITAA
# Assay: ELISA
binder,measurement,value
B1,binding result,binds
